Measurements: PMC11301259, “The crystal structure of methanogen McrD, a methyl‐coenzyme M reductase‐associated protein” (FEBS Open Bio, 2024)

Target: the molecule itself
Assay: crystal structure; McrD at 22 mg/mL crystallised at 4 °C in 0.03 M MgCl2, 0.03 M CaCl2, 0.05 M MES, 0.05 M imidazole pH 6.5, 20% glycerol, 10% PEG 4000, 0.02 M carboxylic acids mix; space group C222(1), two molecules in the asymmetric unit; 1.65 Å; oligomerisation analysis with PISA

B1: Methanomassiliicoccus luminyensis strain B10 McrD (natural protein, UniProt A0AAT8XUI9 1-139, looked up)
chain: MSTDKFEPVPLPEILIFPNRLLSAETTEKLLNRVYDVPHVRQVNISGEGVPAMVGSGPGKGLPVEHEGRKVINVKGREIELQLLVGRVFVEIDDIDVVEKAIEAIDEICQELLPFGYNLEVGRYSKYRPTVTDYKKGKR
notes: McrD of Methanomassiliicoccus luminyensis strain B10, NCBI WP_019176772.1; 139 amino acids; cloned with primers from the start codon to the stop codon; in the crystal residues 1-129/130 are modelled, the C-terminal 10 (monomer A) or 9 (monomer B) residues are disordered; 18 (monomer A) and 9 (monomer B) residues of the plasmid-encoded N-terminal tag are seen in the electron density, so the tag …
stoichiometry N: 2
